# Laboratory results taken from article PMC3560613.
# Substrate: Nc1ccn([C@@H]2O[C@H](COP(=O)(O)OP(=O)(O)OP(=O)(O)O)[C@@H](O)[C@H]2O)c(=O)n1
# Experiment: purified protein
# Conditions: 20 mM glycerol phosphate, 6 mM MgCl2, 20 mM Tris-HCl pH 8, 37°C
Protein,Km [µM],kcat [s⁻¹]
EfGCT (Enterococcus faecalis glycerol 3-phosphate cytidylyltransferase) (Enterococcus faecalis V583) (protein) MKKILTYGTFDLLHYGHINLLKKAKQQGDYLIVGLSTDAFNLEKKKQSYFSYEKRKQLLEAIRYVDLVIPETSWKQKVSDIAEFKIDTLVMGDDWQGAFDFLEVETTAKVLYLPRTPEVSTTQIKKELYYSE,2420,1.51
LmGCT (Listeria monocytogenes glycerol 3-phosphate cytidylyltransferase) (Listeria monocytogenes EGD-e) (protein) MKKVITYGTFDLLHWGHIHLLKRAKALGDYLIVAISSDEFNRIKHKEAYHSYEHRKLIIEAIRYVDEVIPENNWEQKRDDIEKYGIDVFVMGDDWEGEFDFLKDVCEVVYLPRTEGISTSQIKDELK,1520,4.15
